In patent publication US20130071393A1 (published 2013):

T1: Activin A (UniProt P08476 311-426)
T1 construct: also called ActA
T1 sequence (looked up): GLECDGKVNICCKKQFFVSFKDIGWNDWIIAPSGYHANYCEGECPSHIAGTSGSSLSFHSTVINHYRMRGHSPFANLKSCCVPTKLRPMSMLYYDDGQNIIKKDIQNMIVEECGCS

T2: GDF11 (UniProt O95390 299-407)
T2 construct: Ligand used in the reporter gene and BiaCore assays; construct not described; also called Growth and Differentiation Factor-11; BMP11
T2 sequence (looked up): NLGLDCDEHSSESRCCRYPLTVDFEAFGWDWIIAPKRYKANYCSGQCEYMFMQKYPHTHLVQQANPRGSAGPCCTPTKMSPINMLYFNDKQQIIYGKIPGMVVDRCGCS


What was measured:
Activin A [1] = biological target: T1, Activin A; test: cell-based or functional assay
GDF11 [2] = biological target: T2, GDF11; test: cell-based or functional assay
GDF11 [3] = biological target: T2, GDF11; test: BiaCore; ligand coupled to the device, receptor-Fc flowed over
GDF11 [4] = biological target: T2, GDF11; test: BiaCore; ligand coupled, receptor-Fc flowed over; legend: -- = <⅕ WT binding
Activin A [5] = biological target: T1, Activin A; test: BiaCore; ligand coupled to the device, receptor-Fc flowed over

Row | Molecule | binding result (GDF11 [3]) | binding result (Activin A [5]) | other results
1 | ActRIIB-Fc A64 20-134 (from UniProt Q13705 20-134) (Fc fusion) | – | – | KI, Activin Inhibition Activity (cell based assay) (Activin A [1]): 1000 nM; KI, GDF11 Inhibition Activity (cell based assay) (GDF11 [2]): 1000 nM
2 | Soluble ActRIIB-Fc K74I (Fc fusion, UniProt Q13705 19-119, looked up, T0019 variant; whole entry named; not shown: Fc domain) SGRGEAETRECIYYNANWELERTNQSGLERCEGEQDKRLHCYASWANSSGTIELVIKGCWLDDFNCYDRQECVATEENPQVYFCCCEGNFCNERFTHLPEA | – | no binding | binding relative to WT (GDF11 [4]): < 0.2 fold
3 | Soluble ActRIIB-Fc K74Y (Fc fusion, UniProt Q13705 19-119, looked up, T0019 variant; whole entry named; not shown: Fc domain) SGRGEAETRECIYYNANWELERTNQSGLERCEGEQDKRLHCYASWANSSGTIELVYKGCWLDDFNCYDRQECVATEENPQVYFCCCEGNFCNERFTHLPEA | – | no binding | binding relative to WT (GDF11 [4]): < 0.2 fold
4 | Soluble ActRIIB-Fc D80G (Fc fusion, UniProt Q13705 19-119, looked up, T0019 variant; whole entry named; not shown: Fc domain) SGRGEAETRECIYYNANWELERTNQSGLERCEGEQDKRLHCYASWANSSGTIELVKKGCWLGDFNCYDRQECVATEENPQVYFCCCEGNFCNERFTHLPEA | no binding | no binding | –
5 | Soluble ActRIIB-Fc D80N (Fc fusion, UniProt Q13705 19-119, looked up, T0019 variant; whole entry named; not shown: Fc domain) SGRGEAETRECIYYNANWELERTNQSGLERCEGEQDKRLHCYASWANSSGTIELVKKGCWLNDFNCYDRQECVATEENPQVYFCCCEGNFCNERFTHLPEA | no binding | no binding | –
6 | Soluble ActRIIB-Fc D80A (Fc fusion, UniProt Q13705 19-119, looked up, T0019 variant; whole entry named; not shown: Fc domain) SGRGEAETRECIYYNANWELERTNQSGLERCEGEQDKRLHCYASWANSSGTIELVKKGCWLADFNCYDRQECVATEENPQVYFCCCEGNFCNERFTHLPEA | no binding | no binding | –
7 | Soluble ActRIIB-Fc K55A (Fc fusion, UniProt Q13705 19-119, looked up, T0019 variant; whole entry named; not shown: Fc domain) SGRGEAETRECIYYNANWELERTNQSGLERCEGEQDARLHCYASWANSSGTIELVKKGCWLDDFNCYDRQECVATEENPQVYFCCCEGNFCNERFTHLPEA | no binding | – | –
8 | Soluble ActRIIB-Fc D80F (Fc fusion, UniProt Q13705 19-119, looked up, T0019 variant; whole entry named; not shown: Fc domain) SGRGEAETRECIYYNANWELERTNQSGLERCEGEQDKRLHCYASWANSSGTIELVKKGCWLFDFNCYDRQECVATEENPQVYFCCCEGNFCNERFTHLPEA | no binding | no binding | –
9 | Soluble ActRIIB-Fc L79A (Fc fusion, UniProt Q13705 19-119, looked up, T0019 variant; whole entry named; not shown: Fc domain) SGRGEAETRECIYYNANWELERTNQSGLERCEGEQDKRLHCYASWANSSGTIELVKKGCWADDFNCYDRQECVATEENPQVYFCCCEGNFCNERFTHLPEA | no binding | – | –
10 | Soluble ActRIIB-Fc W78A (Fc fusion, UniProt Q13705 19-119, looked up, T0019 variant; whole entry named; not shown: Fc domain) SGRGEAETRECIYYNANWELERTNQSGLERCEGEQDKRLHCYASWANSSGTIELVKKGCALDDFNCYDRQECVATEENPQVYFCCCEGNFCNERFTHLPEA | no binding | no binding | –
11 | Soluble ActRIIB-Fc K74A (Fc fusion, UniProt Q13705 19-119, looked up, T0019 variant; whole entry named; not shown: Fc domain) SGRGEAETRECIYYNANWELERTNQSGLERCEGEQDKRLHCYASWANSSGTIELVAKGCWLDDFNCYDRQECVATEENPQVYFCCCEGNFCNERFTHLPEA | – | – | Kd (Activin A [5]): 4.35 nM; Kd (GDF11 [3]): 5.3 nM
12 | Soluble ActRIIB-Fc WT (64R) (Fc fusion, UniProt Q13705 19-119, looked up, T0019 variant; whole entry named; not shown: Fc domain) SGRGEAETRECIYYNANWELERTNQSGLERCEGEQDKRLHCYASWRNSSGTIELVKKGCWLDDFNCYDRQECVATEENPQVYFCCCEGNFCNERFTHLPEA | – | – | Kd (GDF11 [3]): 86 nM
13 | Soluble ActRIIB-Fc D80M (Fc fusion, UniProt Q13705 19-119, looked up, T0019 variant; whole entry named; not shown: Fc domain) SGRGEAETRECIYYNANWELERTNQSGLERCEGEQDKRLHCYASWANSSGTIELVKKGCWLMDFNCYDRQECVATEENPQVYFCCCEGNFCNERFTHLPEA | no binding | no binding | –

Continued, in another order:

Row | binding result (GDF11 [3]) | binding result (Activin A [5]) | Molecule | other results
14 | no binding | – | Soluble ActRIIB-Fc D54A (Fc fusion, UniProt Q13705 19-119, looked up, T0019 variant; whole entry named; not shown: Fc domain) SGRGEAETRECIYYNANWELERTNQSGLERCEGEQAKRLHCYASWANSSGTIELVKKGCWLDDFNCYDRQECVATEENPQVYFCCCEGNFCNERFTHLPEA | –
15 | no binding | no binding | Soluble ActRIIB-Fc D80R (Fc fusion, UniProt Q13705 19-119, looked up, T0019 variant; whole entry named; not shown: Fc domain) SGRGEAETRECIYYNANWELERTNQSGLERCEGEQDKRLHCYASWANSSGTIELVKKGCWLRDFNCYDRQECVATEENPQVYFCCCEGNFCNERFTHLPEA | –
16 | – | no binding | Soluble ActRIIB-Fc D80I (Fc fusion, UniProt Q13705 19-119, looked up, T0019 variant; whole entry named; not shown: Fc domain) SGRGEAETRECIYYNANWELERTNQSGLERCEGEQDKRLHCYASWANSSGTIELVKKGCWLIDFNCYDRQECVATEENPQVYFCCCEGNFCNERFTHLPEA | binding relative to WT (GDF11 [4]): < 0.2 fold
17 | no binding | no binding | Soluble ActRIIB-Fc D80K (Fc fusion, UniProt Q13705 19-119, looked up, T0019 variant; whole entry named; not shown: Fc domain) SGRGEAETRECIYYNANWELERTNQSGLERCEGEQDKRLHCYASWANSSGTIELVKKGCWLKDFNCYDRQECVATEENPQVYFCCCEGNFCNERFTHLPEA | –
18 | – | no binding | Soluble ActRIIB-Fc K74F (Fc fusion, UniProt Q13705 19-119, looked up, T0019 variant; whole entry named; not shown: Fc domain) SGRGEAETRECIYYNANWELERTNQSGLERCEGEQDKRLHCYASWANSSGTIELVFKGCWLDDFNCYDRQECVATEENPQVYFCCCEGNFCNERFTHLPEA | binding relative to WT (GDF11 [4]): < 0.2 fold
19 | no binding | no binding | Soluble ActRIIB-Fc R56A (Fc fusion, UniProt Q13705 19-119, looked up, T0019 variant; whole entry named; not shown: Fc domain) SGRGEAETRECIYYNANWELERTNQSGLERCEGEQDKALHCYASWANSSGTIELVKKGCWLDDFNCYDRQECVATEENPQVYFCCCEGNFCNERFTHLPEA | –
20 | no binding | no binding | Soluble ActRIIB-Fc E37A (Fc fusion, UniProt Q13705 19-119, looked up, T0019 variant; whole entry named; not shown: Fc domain) SGRGEAETRECIYYNANWALERTNQSGLERCEGEQDKRLHCYASWANSSGTIELVKKGCWLDDFNCYDRQECVATEENPQVYFCCCEGNFCNERFTHLPEA | –
